Laboratory results published in patent US20100029554A1, “Composition and Methods for Treatment of Congestive Heart Failure” (Amylin Pharmaceuticals, Inc., priority 2006, published 2010).
Where no end group is shown, it is not given here.

T1: GLP-1 receptor, endogenous in RINm5f cells (rat (RIN-m5F are called rat pancreas …, UniProt P32301 22-463))
T1 sequence (looked up): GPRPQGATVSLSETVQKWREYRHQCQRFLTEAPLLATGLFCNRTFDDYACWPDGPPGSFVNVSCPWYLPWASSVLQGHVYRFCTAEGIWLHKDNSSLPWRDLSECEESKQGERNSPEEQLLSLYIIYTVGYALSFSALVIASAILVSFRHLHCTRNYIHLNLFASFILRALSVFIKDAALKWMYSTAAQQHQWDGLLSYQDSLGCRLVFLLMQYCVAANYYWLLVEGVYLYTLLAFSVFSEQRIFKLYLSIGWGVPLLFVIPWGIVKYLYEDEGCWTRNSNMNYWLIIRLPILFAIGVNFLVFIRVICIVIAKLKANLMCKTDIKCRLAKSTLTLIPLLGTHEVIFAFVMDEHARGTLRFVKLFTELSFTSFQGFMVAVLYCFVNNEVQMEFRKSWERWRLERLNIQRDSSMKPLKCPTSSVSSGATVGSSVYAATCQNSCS


Key:
Plasma stability = type: in vitro ADME; details: 20 μg/mL in plasma, 37° C., 0-5 hours
Procedure: To assess stability, the compound of interest is spiked into plasma at a concentration of 20 μg/mL. It is incubated at 37° C. for 0, 1, 2 3, 4, 5 hours in triplicate. At each time point, MeOH is added to a 96 well microtiter plate and then sample is added in a ratio of 1 part sample to 4 parts MeOH to quench the digestion reaction. Samples are mixed with multi-channel pipette or liquid handler. The plate is then centrifuged for 10 minutes and placed in an autosampler kept at 10° C. Samples are then injected into a mass spectrometer (API 3000, Applied Biosystems) equipped with an autosampler (Leap HTC Pal) and HPLC pumps (Shimadzu LC-10ADVP).

[1] = target: T1, GLP-1 receptor, endogenous in RINm5f …; assay: cell-based or functional assay

| Molecule | cAMP, GLP-1 CYCLASE (6-23) EC50 [1] | also measured |
| --- | --- | --- |
| CC[C@H](C)[C@H](NC(=O)[C@H](Cc1ccccc1)NC(=O)[C@H](CCC(=O)O)NC(=O)[C@H](CCCCN)NC(=O)[C@H](C)NC(=O)[C@H](C)NC(=O)[C@H](CCC(N)=O)NC(=O)CNC(=O)[C@H](CCC(=O)O)NC(=O)[C@H](CC(C)C)NC(=O)[C@H](Cc1ccc(O)cc1)NC(=O)[C@H](CO)NC(=O)[C@H](CO)NC(=O)[C@@H](NC(=O)[C@H](CC(=O)O)NC(=O)[C@H](CO)NC(=O)[C@@H](NC(=O)[C@H](Cc1ccccc1)NC(=O)[C@@H](NC(=O)CNC(=O)[C@H](CCC(=O)O)NC(=O)[C@H](C)NC(=O)[C@H](Cc1c[nH]cn1)NC(=O)COCCOCCNC(=O)[C@@H]1CCCN1C(=O)[C@H](C)NC(CCc1ccccc1)C(=O)O)[C@@H](C)O)[C@@H](C)O)C(C)C)C(=O)N[C@@H](C)C(=O)N[C@@H](Cc1c[nH]c2ccccc12)C(=O)N[C@@H](CC(C)C)C(=O)N[C@H](C(=O)N[C@@H](CCCCN)C(=O)NCC(=O)N[C@@H](CCCNC(=N)N)C(N)=O)C(C)C (stereo partly drawn) [Cmpd 4983, (R,S)-1-[N2-(1-carboxy-3-phenylpropyl)-L-ala]-L-pro-ado-GLP-1-(7-36) amide] |  | plasma stability as compared to native GLP-1 (Plasma stability): increased plasma stability; plasma stability as compared to native GLP-1 (Plasma stability; second, narrower list of b152): increased plasma stability |
| CC[C@H](C)[C@H](NC(=O)[C@H](Cc1ccccc1)NC(=O)[C@H](CCC(=O)O)NC(=O)[C@H](CCCCN)NC(=O)[C@H](C)NC(=O)[C@H](C)NC(=O)[C@H](CCC(N)=O)NC(=O)CNC(=O)[C@H](CCC(=O)O)NC(=O)[C@H](CC(C)C)NC(=O)[C@H](Cc1ccc(O)cc1)NC(=O)[C@H](CO)NC(=O)[C@H](CO)NC(=O)[C@@H](NC(=O)[C@H](CC(=O)O)NC(=O)[C@H](CO)NC(=O)[C@@H](NC(=O)[C@H](Cc1ccccc1)NC(=O)[C@@H](NC(=O)CNC(=O)[C@H](CCC(=O)O)NC(=O)[C@H](C)NC(=O)[C@H](Cc1c[nH]cn1)NC(=O)COCCOCCNC(=O)COCCOCCNC(=O)[C@@H]1CCCN1C(=O)[C@H](C)NC(CCc1ccccc1)C(=O)O)[C@@H](C)O)[C@@H](C)O)C(C)C)C(=O)N[C@@H](C)C(=O)N[C@@H](Cc1c[nH]c2ccccc12)C(=O)N[C@@H](CC(C)C)C(=O)N[C@H](C(=O)N[C@@H](CCCCN)C(=O)NCC(=O)N[C@@H](CCCNC(=N)N)C(N)=O)C(C)C (stereo partly drawn) [Cmpd 4984, (R,S)-1-[N2-(1-carboxy-3-phenylpropyl)-L-ala]-L-pro-ado-ado-GLP-1-(7-36) amide] |  | plasma stability as compared to native GLP-1 (Plasma stability): increased plasma stability |
| CC[C@H](C)[C@H](NC(=O)[C@H](Cc1ccccc1)NC(=O)[C@H](CCC(=O)O)NC(=O)[C@H](CCCCN)NC(=O)[C@H](C)NC(=O)[C@H](C)NC(=O)[C@H](CCC(N)=O)NC(=O)CNC(=O)[C@H](CCC(=O)O)NC(=O)[C@H](CC(C)C)NC(=O)[C@H](Cc1ccc(O)cc1)NC(=O)[C@H](CO)NC(=O)[C@H](CO)NC(=O)[C@@H](NC(=O)[C@H](CC(=O)O)NC(=O)[C@H](CO)NC(=O)[C@@H](NC(=O)[C@H](Cc1ccccc1)NC(=O)[C@@H](NC(=O)CNC(=O)[C@H](CCC(=O)O)NC(=O)[C@H](C)NC(=O)[C@H](Cc1c[nH]cn1)NC(=O)COCCOCCN)[C@@H](C)O)[C@@H](C)O)C(C)C)C(=O)N[C@@H](C)C(=O)N[C@@H](Cc1c[nH]c2ccccc12)C(=O)N[C@@H](CC(C)C)C(=O)N[C@H](C(=O)N[C@@H](CCCCN)C(=O)NCC(=O)N[C@@H](CCCNC(=N)N)C(N)=O)C(C)C [Cmpd 4992] |  | plasma stability as compared to native GLP-1 (Plasma stability): increased plasma stability; plasma stability as compared to native GLP-1 (Plasma stability; second, narrower list of b152): increased plasma stability |
| HGEGTFTSDLSKQLEEEAVRLFIEWLKNGGPSKEIIA [Cmpd 5444] | 0.09 nM |  |
| HGEGTFTSDLSKQLEEEAVRLFIEWLKNGGPSKEIAS [Cmpd 5445] | 0.09 nM |  |
| HGEGTFTSDLSKQLEEEAVRLFIEWLKNGGPSKAIIS [Cmpd 5446] | 0.1 nM |  |
| HGEGTFTSDLSKQLEEKAAKEFIEWLIQGGPSKEIIS [Cmpd 5101] |  | cAMP, CYCLASE GLP/GIP/CT (RIN) EC50 [1]: 0.863 nM |
| HGEGTFTSDLSKQLEEEAVRLFIEWLIKGKP [Cmpd 5227] | 0.629 nM |  |
| HGEGTFTSDVTEYLEEEAVRLFIEWLKQGGPSSGAPPPS-NH2 [Cmpd 5129] |  | cAMP, CYCLASE GLP/GIP/CT (RIN) EC50 [1]: 1.09 nM |
| HGEGTFTSDLSKQLEEEAVRLFIEWLKNGKPGKGKIRYS [Cmpd 5295] | 0.089 nM |  |
| HGEGTFTSDLSKQLEEEAVRLFIEWLKNGKPGGKKIRYS [Cmpd 5451] |  | cAMP, CYCLASE GLP/GIP/CT (RIN) EC50 [1]: 0.205 nM |
| HGEGTFTSDLSKQVQEEAVRLFVEFLKN-NH2 [Cmpd 5035] |  | cAMP, CYCLASE GLP/GIP/CT (RIN) EC50 [1]: 628 nM |
| HGEGTFTSDLVKILEAEAVRKFIEFLKNGGPSSGAPPPS-NH2 [Cmpd 5529] | 0.388 nM |  |
| HGEGTFTSDLSKQLEEEAVRLFIEWLKNGKPKKIRYA [Cmpd 5439] | 0.17 nM |  |
| HGEGTFTSDLSKQLEEEAVRLFIEWLKNGKPKAIRYS [Cmpd 5442] | 0.1 nM |  |
| HGEGTFTSDLSKQLEEEAVRLFIEWLKNGKPKKIAYS [Cmpd 5440] | 0.13 nM |  |
| HGEGTFTSDLSKQLEEEAVRLFIEWLKNGKPKKARYS [Cmpd 5441] | 0.128 nM |  |
| HGEGTFTSDLSKQLEEEAVRLFIEWLKNGKPAKIRYS [Cmpd 5443] | 0.08 nM |  |
